target: taxol stabilized microtubules assembled from MAP-free tubulin from bovine brain (bovine) (UniProt Q6B856); test: co-sedimentation; 1.5 μM GFP-tagged TPPP/p25 with increasing concentrations of taxol stabilized MTs, 15 min at 37 °C, centrifugation; GFP fluorescence of pellets and supernatants; apparent Kd (likely a composite of MT binding and TPPP/p25 dimerization or oligomerization)

Kd | Substance
1.75 µM | GFP-tagged TPPP/p25 ΔC(158) (from UniProt O94811 1-157) (domain or fragment)
0.86 µM | GFP-tagged TPPP/p25 ΔN(49) (from UniProt O94811 50-219) (domain or fragment)
1.44 µM | GFP-tagged full-length TPPP/p25 (from UniProt O94811 1-219) (natural protein)

— PMC4542545
